Laboratory results taken from paper PMC7386476.

Experiments:
[1] = target: nsp12 (RNA-dependent RNA polymerase);nsp7;nsp8;nsp13 helicase (SARS-CoV-2;SARS-CoV-2;SARS-CoV-2;SARS-Co …, UniProt P0DTD1;P0DTD1;P0DTD1;P0DTD1 4393-5324;3860-3942;3943-4140;5325-5925, |||); test: EMSA
[2] = target: nsp12 (RNA-dependent RNA polymerase);nsp7;nsp8 (SARS-CoV-2;SARS-CoV-2;SARS-CoV-2, UniProt P0DTD1;P0DTD1;P0DTD1 4393-5324;3860-3942;3943-4140, ||); test: EMSA

B1: RNA scaffold (template-product, cryo-EM primer and template, Figure 1A) (dsRNA)
RNA 1: CUAUCCCCAUGUGAUUUUAAUAGCUUCUUAGGAGAAUGACGUAGCAUGCUACGCG
RNA 2: CGCGUAGCAUGCUACGUCAUUCUCCUAAGAAGCUA
binding result [1]: binds | binding result [2]: binds
